Target: biotinylated histone H3 peptide acetylated at K14 (residues 1-21)
Assay: BLI; biotinylated H3 or H3K14ac peptide (25 nM) immobilised on streptavidin sensors; BD proteins at 1 or 2 uM; 25 °C; 20 mM Tris pH 7.5, 300 mM NaCl, 1 mM TCEP, 1 uM ZnCl2, 10% glycerol, 0.5 mg/mL BSA; apparent Kd from a double exponential fit

binding ratio, acetylated versus nonacetylated H3K14 peptide (H3:H3K14ac) | Substance
1.7 | BD2 protein of PBRM1, GST removed (domain or fragment)
1.5 | BD4 protein of PBRM1, GST removed (domain or fragment)
6.8 | BD234 protein of PBRM1, GST removed (domain or fragment)
12.3 | BD245 protein of PBRM1, GST removed (domain or fragment)

Reference: article PMC6441893
